B1: ESR2 (parent)
chain: KSCQACRLRKCYEVGMVKCGSRRE
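Also: lentivirally expressed fusions sorted by FACS into six bins by GFP to DsRed ratio, PSI derived from sequencing read proportions per bin multiplied by bin number.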

Variants of B1 are the subject of the series. The series can be described thus: protein stability index of a GFP-peptide fusion (GPS, HEK-293T) (PSI 1-6); higher = more stable. As to conditions: c terminus: a fixed tail appended.
As to KSCFACRLRKCYEVGMVKCGSRRE, the protein stability index came out at 1.32.
Under KSCRACRLRKCYEVGMVKCGSRRE stands 2.15; under KSCIACRLRKCYEVGMVKCGSRRE, 1.88.
On to KSCAACRLRKCYEVGMVKCGSRRE, for which the protein stability index turned out to be 1.55.
Under KSCCACRLRKCYEVGMVKCGSRRE stands 1.72; under KSCHACRLRKCYEVGMVKCGSRRE, 1.83; under KSCVACRLRKCYEVGMVKCGSRRE, 2.04.
KSCEACRLRKCYEVGMVKCGSRRE: the protein stability index worked out at 2.1.
Under KSCTACRLRKCYEVGMVKCGSRRE stands 2.17; under KSCKACRLRKCYEVGMVKCGSRRE, 1.84; under KSCWACRLRKCYEVGMVKCGSRRE, 1.39.
The same measure for KSCMACRLRKCYEVGMVKCGSRRE: 2.18; for KSCSACRLRKCYEVGMVKCGSRRE: 2.11; for KSCYACRLRKCYEVGMVKCGSRRE: 1.9.
Take KSCNACRLRKCYEVGMVKCGSRRE: the protein stability index stood at 1.86.
Under KSCPACRLRKCYEVGMVKCGSRRE stands 1.68.
The same measure for KSCGACRLRKCYEVGMVKCGSRRE: 1.58; for KSCLACRLRKCYEVGMVKCGSRRE: 2.15; for KSCDACRLRKCYEVGMVKCGSRRE: 1.81.
The same measure for KSCQAARLRKCYEVGMVKCGSRRE: 2.57; for KSCQAERLRKCYEVGMVKCGSRRE: 2.38; for KSCQADRLRKCYEVGMVKCGSRRE: 2.73.
In the case of KSCQAGRLRKCYEVGMVKCGSRRE, the protein stability index stood at 2.88.
Under KSCQAFRLRKCYEVGMVKCGSRRE stands 1.96; under FSCQACRLRKCYEVGMVKCGSRRE, 2.31.
The same measure for CSCQACRLRKCYEVGMVKCGSRRE: 2.56; for DSCQACRLRKCYEVGMVKCGSRRE: 1.75; for LSCQACRLRKCYEVGMVKCGSRRE: 1.95.
For PSCQACRLRKCYEVGMVKCGSRRE, the protein stability index stood at 2.35.
For YSCQACRLRKCYEVGMVKCGSRRE, the protein stability index turned out to be 1.45.
Under VSCQACRLRKCYEVGMVKCGSRRE stands 2.31; under QSCQACRLRKCYEVGMVKCGSRRE, 2.42.
TSCQACRLRKCYEVGMVKCGSRRE: the protein stability index is 2.1.
Under GSCQACRLRKCYEVGMVKCGSRRE stands 2.71; under MSCQACRLRKCYEVGMVKCGSRRE, 1.87; under SSCQACRLRKCYEVGMVKCGSRRE, 3.19.
Consider HSCQACRLRKCYEVGMVKCGSRRE, for which the protein stability index stood at 2.5.
Under WSCQACRLRKCYEVGMVKCGSRRE stands 1.65; under RSCQACRLRKCYEVGMVKCGSRRE, 2.22; under ISCQACRLRKCYEVGMVKCGSRRE, 2.78.
Take ASCQACRLRKCYEVGMVKCGSRRE: the protein stability index was found to be 2.89.
Turning to ESCQACRLRKCYEVGMVKCGSRRE, the protein stability index worked out at 1.72.
The same measure for NSCQACRLRKCYEVGMVKCGSRRE: 1.59.
Consider KSSQACRLRKCYEVGMVKCGSRRE, for which the protein stability index was found to be 3.24.
As for KSVQACRLRKCYEVGMVKCGSRRE, the protein stability index stood at 2.54.
Turning to KSAQACRLRKCYEVGMVKCGSRRE, the protein stability index was found to be 2.66.
As to KSYQACRLRKCYEVGMVKCGSRRE, the protein stability index was 2.19.
The same measure for KSQQACRLRKCYEVGMVKCGSRRE: 2.94; for KSPQACRLRKCYEVGMVKCGSRRE: 2.92.
Under KSIQACRLRKCYEVGMVKCGSRRE stands 2.39; under KSDQACRLRKCYEVGMVKCGSRRE, 2.69; under KSFQACRLRKCYEVGMVKCGSRRE, 2.2.
As for KSHQACRLRKCYEVGMVKCGSRRE, the protein stability index was 2.65.
Under KSNQACRLRKCYEVGMVKCGSRRE stands 2.71; under KSLQACRLRKCYEVGMVKCGSRRE, 2.57; under KSTQACRLRKCYEVGMVKCGSRRE, 2.57.
Turning to KSWQACRLRKCYEVGMVKCGSRRE, the protein stability index was 1.85.
Under KSKQACRLRKCYEVGMVKCGSRRE stands 2.59.
Under KSEQACRLRKCYEVGMVKCGSRRE stands 3.21; under KSGQACRLRKCYEVGMVKCGSRRE, 2.97; under KSMQACRLRKCYEVGMVKCGSRRE, 2.48.
Under KSCQCCRLRKCYEVGMVKCGSRRE stands 2.08.
For the variant KSCQHCRLRKCYEVGMVKCGSRRE, the protein stability index came to 2.15.
Take KSCQNCRLRKCYEVGMVKCGSRRE: the protein stability index was 1.81.
The same measure for KSCQRCRLRKCYEVGMVKCGSRRE: 3.08; for KSCQMCRLRKCYEVGMVKCGSRRE: 1.36; for KSCQVCRLRKCYEVGMVKCGSRRE: 1.93.
Under KSCQTCRLRKCYEVGMVKCGSRRE stands 2.11; under KSCQYCRLRKCYEVGMVKCGSRRE, 1.64.
The same measure for KSCQLCRLRKCYEVGMVKCGSRRE: 2.29; for KSCQGCRLRKCYEVGMVKCGSRRE: 1.84; for KSCQECRLRKCYEVGMVKCGSRRE: 2.39.
Turning to KSCQICRLRKCYEVGMVKCGSRRE, the protein stability index stood at 2.34.
Under KSCQPCRLRKCYEVGMVKCGSRRE stands 2.3; under KSCQWCRLRKCYEVGMVKCGSRRE, 1.77.
Under KSCQSCRLRKCYEVGMVKCGSRRE stands 2; under KSCQKCRLRKCYEVGMVKCGSRRE, 2.48.
KSCQDCRLRKCYEVGMVKCGSRRE: the protein stability index turned out to be 2.09.
Regarding KSCQQCRLRKCYEVGMVKCGSRRE, the protein stability index amounted to 2.11.
Under KSCQFCRLRKCYEVGMVKCGSRRE stands 1.55.
The same measure for KECQACRLRKCYEVGMVKCGSRRE: 1.96.
The same measure for KPCQACRLRKCYEVGMVKCGSRRE: 1.86; for KYCQACRLRKCYEVGMVKCGSRRE: 2.94; for KQCQACRLRKCYEVGMVKCGSRRE: 1.96.
In the case of KMCQACRLRKCYEVGMVKCGSRRE, the protein stability index worked out at 1.78.
The same measure for KACQACRLRKCYEVGMVKCGSRRE: 1.6; for KLCQACRLRKCYEVGMVKCGSRRE: 1.56; for KGCQACRLRKCYEVGMVKCGSRRE: 1.96.
The same measure for KRCQACRLRKCYEVGMVKCGSRRE: 2.43.
As for KICQACRLRKCYEVGMVKCGSRRE, the protein stability index was determined as 1.46.
As to KVCQACRLRKCYEVGMVKCGSRRE, the protein stability index stood at 1.92.
The same measure for KNCQACRLRKCYEVGMVKCGSRRE: 1.98; for KTCQACRLRKCYEVGMVKCGSRRE: 1.92; for KCCQACRLRKCYEVGMVKCGSRRE: 1.54.

The values are drawn from the supplement of paper PMC10567573.
